“And” between values parts separate entries of the source, which are not always exact repeats. Equal values may be shown once.
Target: human angiotensin-converting enzyme 2 ectodomain (ACE2, residues 1-614) (human, UniProt Q9BYF1 18-614)
Assay: BLI

human angiotensin-converting enzyme 2 ectodomain (ACE2, residues 1-614), sequence (Q9BYF1 18-614): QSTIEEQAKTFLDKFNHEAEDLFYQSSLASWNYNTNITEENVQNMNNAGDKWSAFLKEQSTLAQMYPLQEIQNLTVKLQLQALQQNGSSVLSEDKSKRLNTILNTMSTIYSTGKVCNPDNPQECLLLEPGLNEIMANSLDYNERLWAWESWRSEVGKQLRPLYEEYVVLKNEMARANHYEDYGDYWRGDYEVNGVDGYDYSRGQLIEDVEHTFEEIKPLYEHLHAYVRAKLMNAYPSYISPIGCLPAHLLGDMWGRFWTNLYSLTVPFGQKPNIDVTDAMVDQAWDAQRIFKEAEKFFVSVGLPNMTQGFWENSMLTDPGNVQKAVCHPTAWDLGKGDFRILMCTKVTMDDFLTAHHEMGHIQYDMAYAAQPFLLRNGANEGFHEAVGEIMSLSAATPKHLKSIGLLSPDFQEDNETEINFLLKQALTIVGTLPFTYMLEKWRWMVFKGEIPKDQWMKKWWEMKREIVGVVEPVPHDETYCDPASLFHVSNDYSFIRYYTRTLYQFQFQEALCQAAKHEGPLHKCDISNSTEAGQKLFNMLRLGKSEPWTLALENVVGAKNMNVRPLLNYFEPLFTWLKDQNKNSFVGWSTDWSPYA

B1: SARS-CoV S domain B (S^B), residues 306-575 (domain or fragment)
chain: not shown
Q: B1 was tested. Which Kd did it give?
A: 5 ± 0.1 nM

Q: And the koff?
A: 0.00087 s⁻¹ and 0.00071 s⁻¹

Q: And the kon?
A: 170000 M⁻¹ s⁻¹

— publication PMC7102599 (Cell, 2020)
